# Results published in publication PMC5454996.
# Molecular target: recombinant Der p 1 (mature, enzymatically active cysteine protease) (house dust mite) (UniProt P08176)
# Assay: not given
row,Molecule,reduction of the initial Der p 1 activity (Boc-Gln-Ala-Arg-AMC hydrolysis) by tetrapeptide (10 mM) at pH 4 [%]
1,KYVQ [tetrapeptide KYVQ (first half of the cleavage site KYVQ40p–S41pNGG)],45
2,FDLN [tetrapeptide FDLN (first half of the cleavage site FDLN78p–A79pETN)],75

# Results, then the molecule that gave them:
row,reduction of the initial Der p 1 activity (Boc-Gln-Ala-Arg-AMC hydrolysis) by tetrapeptide (10 mM) at pH 4 [%],Molecule
1,80,LNAE [tetrapeptide LNAE (first half of the cleavage site LNAE80p–T1NAC)]
2,30,NKSY [tetrapeptide NKSY (first half of the cleavage site NKSY19p–A20pTFE)]

# Molecular target: recombinant Der p 1 (mature, enzymatically active cysteine protease) (house dust mite) (UniProt P08176)
# Assay: enzyme inhibition kinetics; steady-state velocities of Der p 1 at each propeptide concentration, pH 7, substrate Boc-Gln-Ala-Arg-AMC at 160 µM; KD calculated by Equation (4) because initial and steady-state velocities differed little
row,Kd [nM],Molecule
1,130,"Der p 1 propeptide double mutant D51pA/E56pA, full-length (1-80) (domain or fragment)"

# Molecular target: recombinant Der p 1 (mature, enzymatically active cysteine protease) (house dust mite) (UniProt P08176)
# Assay: enzyme inhibition kinetics; time-dependent inhibition of Der p 1 (5 nM) by propeptide (30–300 nM) at pH 7, fluorogenic substrate Boc-Gln-Ala-Arg-AMC; pre-steady-state kobs against propeptide concentration by linear regression gives KD Global, kon and koff; simple 1/1 stoichiometry assumed
Kd [nM],koff [s⁻¹],kon [M⁻¹ s⁻¹],Molecule
37,0.017,440000,"Der p 1 propeptide mutant D51pA, full-length (1-80) (domain or fragment)"
5,0.007,1.5e+06,"Der p 1 propeptide mutant E56pA, full-length (1-80) (domain or fragment)"
15,0.007,460000,"Der p 1 propeptide mutant K17pA, full-length (1-80) (domain or fragment)"
6,0.007,1.2e+06,"Der p 1 propeptide mutant Y19pF, full-length (1-80) (domain or fragment)"
7,0.0078,1.1e+06,"Der p 1 propeptide, wild type, full-length (1-80) (domain or fragment)"
